One may read the Kd as the constant that tells how readily two partners part at equilibrium.

Data on 2 molecules can be found in US20230139680A1 (TEXAS A AND M UNIVERSITY SYSTEM, published 2023).

The target of test [1] is T1, HDAC8 (UniProt Q9BY41 1-377).
T1 construct: Expressed in E. coli BL21(DE3) CodonPlus, purified on Ni-NTA and Q Sepharose; also called HAC8; histone deacetylase 8; not shown: C-terminal TEV site and His6 tag by the plasmid's name (pHD4-HDAC8-TEV-His6)
T1 sequence (looked up): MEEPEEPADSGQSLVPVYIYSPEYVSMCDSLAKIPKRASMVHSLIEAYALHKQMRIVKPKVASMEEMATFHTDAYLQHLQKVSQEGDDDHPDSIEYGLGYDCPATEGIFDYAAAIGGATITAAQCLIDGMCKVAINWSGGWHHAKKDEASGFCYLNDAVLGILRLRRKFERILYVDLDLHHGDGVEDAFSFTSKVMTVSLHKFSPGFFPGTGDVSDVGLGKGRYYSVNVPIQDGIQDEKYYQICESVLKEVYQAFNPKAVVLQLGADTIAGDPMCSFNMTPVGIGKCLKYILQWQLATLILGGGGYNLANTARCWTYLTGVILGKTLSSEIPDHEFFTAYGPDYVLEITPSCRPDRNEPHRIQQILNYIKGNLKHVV
Put plainly: fluorescence polarization, 25 nM 5-FAM peptide, protein titrated. (Fluorescence polarisation rises when a labelled molecule tumbles more slowly, as on binding a larger partner.)

The target in test [2] is T1, HDAC8. The test can be described thus: cell-based or functional assay.
The target in test [3] is T1, HDAC8. Put plainly: fluorescence polarization (summary sentence of the example).
Description: The fluorescence polarization was measured in a microplate reader at Ex/Em=490 nm/520 nm.

Starred links: 1 amine or outer side, 2 acyl side, 3 side chain; linkers in the order of their positions; H or OH if unused. Positions of bridges follow the written chain, without caps; N, C: chain ends. Non-standard residues stand in square brackets, D forms with d. No end group written: not given here. *: point of attachment. AcrK = N6-acryloyl-L-lysine, C=CC(=O)NCCCC[C@H](N[*:1])C(=O)[*:2]; 5FAM = O=C1OC2(c3ccc(O)cc3Oc3cc(O)ccc32)c2ccc(C(=O)*)cc21

B1: 5-FAM-conjugated LinH8a (peptide)
peptide: CQSLWMNKK(5FAM)-NH2
modifications: N-terminus assumed
SMILES: CSCC[C@H](NC(=O)[C@H](Cc1c[nH]c2ccccc12)NC(=O)[C@H](CC(C)C)NC(=O)[C@H](CO)NC(=O)[C@H](CCC(N)=O)NC(=O)[C@@H](N)CS)C(=O)N[C@@H](CC(N)=O)C(=O)N[C@@H](CCCCN)C(=O)N[C@@H](CCCCNC(=O)c1ccc2c(c1)C(=O)OC21c2ccc(O)cc2Oc2cc(O)ccc21)C(N)=O
notes: Linear counterpart with plain Lys in place of AcrK; also called linear counterpart of 5FAM-CycH8a
On to B1, for which the Kd in test [1] is above 50 µM.

As for CQSLWMN[AcrK]K(5FAM)-NH2 (bridge 1-8; not fully specified (bridges), also called 5FAM-CycH8a; 5FAM-cycH8a) [5-FAM-conjugated CycH8a], in test [1], the affinity, expressed as Kd, was 7.1 µM. Besides, in test [2], the “IC50 of inhibition of HDAC8 deacetylation of Boc-AcK-AMC (fluorogenic, trypsin-coupled activity assay)” value turned out to be 9.7 µM. Moreover, in test [3], the “fold stronger affinity than its linear counterpart” value is 6 fold.
